± gives the uncertainty stated by the source.
Experiment: amyloid nucleation score (Sup35N fusion, yeast selection) (log enrichment); library NNK3; higher = more nucleation; inactive = no reads after selection
Summary of the method: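 Yeast lacking psi expressed peptides of 20 random codons fused to Sup35N, received 100 μM copper sulfate for 24 hours, and were then grown for 7 days at 30°C on medium lacking adenine and uracil. Illumina sequencing of input and output plasmid inserts provided the reads. Nucleation scores are DiMSum log enrichments of output over input, centred on the mode of non-aggregating sequences. Any sequence with under 100 input reads was excluded.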
With WFDSAPSPLDLRVHLFNVKV the amyloid nucleation score was “inactive”.
For AVGNCSSWGYGSSTLP, the amyloid nucleation score was “inactive”.
For IHGKGGLWSHSISIHWNN, the amyloid nucleation score was “inactive”.
For CVDQT, the amyloid nucleation score was “inactive”.
In the case of SWYDVRSVPKSMVAMMGWRL, the amyloid nucleation score is reported as “inactive”.
With FVESSDLMRMSWFWWTGWDL the amyloid nucleation score was “inactive”.
In the case of YKIYIFFGTVYMGVDRDQIG, the amyloid nucleation score is reported as 2.89 ± 0.063.
In the case of PEVCEPLLGFLCFCPVNSVP, the amyloid nucleation score is reported as “inactive”.
With CSCWFFLVHNFNNIYRILWK the amyloid nucleation score was “inactive”.
In the case of LYGTFVNSCQRFNLLDV, the amyloid nucleation score is reported as “inactive”.
For LSDFMLVAILTV, the amyloid nucleation score was “inactive”.
In the case of CNLALFTRGWGEYMIVSCCK, the amyloid nucleation score is reported as “inactive”.
In the case of GTGTRSHTLA, the amyloid nucleation score is reported as “inactive”.
For SWRHSCNTRSNDYNIDWE, the amyloid nucleation score was “inactive”.
In the case of SRWTEACI, the amyloid nucleation score is reported as “inactive”.
Work on CDRTIMRSYDPAL yielded an amyloid nucleation score of 1.16 ± 0.099.
For CCCRIEYHGVHGATSHSQTV, the amyloid nucleation score was “inactive”.
LYFNRRWWPMRWVRDSPRPS gave an amyloid nucleation score of 0.024 ± 0.96.
With AHRFITMSLERVSTYRGLYV the amyloid nucleation score was “inactive”.
With DKGQRVNSSGRVCNMNMGYW the amyloid nucleation score was “inactive”.
Work on LNCGSAFRDVFTVMALNTRV yielded an amyloid nucleation score of -0.14 ± 0.88.
In the case of PLDVNGYMNVTSGRRMCARR, the amyloid nucleation score is reported as “inactive”.
In the case of LTNSYLDMLRM, the amyloid nucleation score is reported as “inactive”.
In the case of SSMSRVCEIKVLYNMSGVYT, the amyloid nucleation score is reported as “inactive”.
For SAYSVHLSSVHFELVVET, the amyloid nucleation score was “inactive”.
Substance SKCGLLNSSGTYWNIG has an amyloid nucleation score of 0.934 ± 0.15.
For TGYWRIFSCSCLIVCVRLSV, the amyloid nucleation score was “inactive”.
With GAIRLRSVNSNLGWLTAPLR the amyloid nucleation score was “inactive”.
With TFQDGLLRSDWFIMTLFRRP the amyloid nucleation score was “inactive”.
With VYFGSWTWSVNSKHLPPALV the amyloid nucleation score was “inactive”.
For TLVPVCGGSAGLVSSRKAAT, the amyloid nucleation score was “inactive”.
With LHSIFDSVHSCMRFWMIWSE the amyloid nucleation score was “inactive”.
For FQKQLASRCTSWSWTRWLVQ, the amyloid nucleation score was “inactive”.
In the case of QWIVDFCNCTWEVVRVLRFC, the amyloid nucleation score is reported as “inactive”.
In the case of RLSGKTPCAK, the amyloid nucleation score is reported as “inactive”.
For FKSAFWLIM, the amyloid nucleation score was “inactive”.
With VVDLIFLSLF the amyloid nucleation score was “inactive”.
With PTSFYPVQRPPRFCAGHFRS the amyloid nucleation score was “inactive”.
For HCSCRNWSLMLGRFFVFVTC, the amyloid nucleation score was “inactive”.
In the case of TIISCFREKIGLSRM, the amyloid nucleation score is reported as “inactive”.
In the case of EAWIIMSRVGI, the amyloid nucleation score is reported as “inactive”.
SYSNDHAFVSRVAGCNIC gave an amyloid nucleation score of 1.53 ± 0.1.
With LISMYHHCSGHLVAQDTVSV the amyloid nucleation score was “inactive”.
In the case of MRYINEKCVT, the amyloid nucleation score is reported as “inactive”.
Work on RDRQFSSSDVPGCEVTGRTD yielded an amyloid nucleation score of 1.04 ± 0.12.
For YLRGVFLRYGG, the amyloid nucleation score was “inactive”.
In the case of SCECSSNMGEAFRKLVGTSA, the amyloid nucleation score is reported as “inactive”.
In the case of ELCTVLIVRFSRGSERLKNE, the amyloid nucleation score is reported as “inactive”.
With CTGYDCVGMGADFCARMWHC the amyloid nucleation score was “inactive”.
With CMHGRGMWMNIACAFSCRQF the amyloid nucleation score was 0.063 ± 0.69.
In the case of HSWNFGVCG, the amyloid nucleation score is reported as 0.229 ± 0.2.
With LSNGDAKTSRTASVRCLRYA the amyloid nucleation score was “inactive”.
In the case of SWSRYNDC, the amyloid nucleation score is reported as “inactive”.
In the case of NMCYSVCVHYLLTAESKCHT, the amyloid nucleation score is reported as “inactive”.
For VTQLWVLNSVSVYWKDLVAP, the amyloid nucleation score was -0.319 ± 1.1.
In the case of VNKVKILCYGHHFKGMWDLA, the amyloid nucleation score is reported as “inactive”.
With GVVKRQRLWTVGMNPKIEAW the amyloid nucleation score was “inactive”.
For QGYLRKYPVTGICVIYECDG, the amyloid nucleation score was “inactive”.
For NWSSH, the amyloid nucleation score was “inactive”.
In the case of SIDDVDFSGTAKMSSSQRCT, the amyloid nucleation score is reported as “inactive”.
Work on FVCLT yielded an amyloid nucleation score of 1.32 ± 0.13.
For LFTLTWSWQLKGFFYYHGYV, the amyloid nucleation score was “inactive”.
With RGSGILRVLTKSRWCICMGT the amyloid nucleation score was “inactive”.
For LESFWFMTGFF, the amyloid nucleation score was “inactive”.
Substance RLLIMSGNNGLLGPSYNAIV has an amyloid nucleation score of -0.01 ± 0.78.
For LLDNFY, the amyloid nucleation score was “inactive”.
In the case of SWRPAICPLLVMKL, the amyloid nucleation score is reported as “inactive”.
In the case of YVRLWVEDWETFSKMGSQIL, the amyloid nucleation score is reported as “inactive”.
For YVILGIRGKGWVFYQRAP, the amyloid nucleation score was “inactive”.
With HNMNR the amyloid nucleation score was “inactive”.
For DGVLSVGSLCNDRFVLEMYG, the amyloid nucleation score was -0.432 ± 1.
For WSMSDFAALIGWIDALGLEL, the amyloid nucleation score was “inactive”.
LHAMPLEGFLHLCPKLTCHQ gave an amyloid nucleation score of 0.676 ± 0.18.
With EYLPEQPVCIVMSYTPKFPC the amyloid nucleation score was “inactive”.
In the case of EYHKMTGIFAPLFILIMVV, the amyloid nucleation score is reported as “inactive”.
With DYGLHDRTYTSIYRVA the amyloid nucleation score was “inactive”.
With GLFIGYDVQ the amyloid nucleation score was “inactive”.
For RIKYS, the amyloid nucleation score was “inactive”.
Work on RPKPNRSRTIASQLETKSGW yielded an amyloid nucleation score of -0.727 ± 1.1.
With YRFYLVSVVFKTDEVARKSE the amyloid nucleation score was “inactive”.
For FMVWYREMDLVLVAQREEYK, the amyloid nucleation score was “inactive”.
For VKMSWHHHCLFLICLCTSYE, the amyloid nucleation score was 0.606 ± 0.13.
For HQVKVIVCCVTYVVQYVVMM, the amyloid nucleation score was “inactive”.
Work on QIFLCTGFCR yielded an amyloid nucleation score of 2.69 ± 0.062.
SGVCYFHARTRKSSSLRELV showed an amyloid nucleation score of 1.2 ± 0.12.
Work on SVSYFWFARL yielded an amyloid nucleation score of -0.005 ± 0.98.
VEEGFGLMSKIAHSIGLREC showed an amyloid nucleation score of -0.278 ± 1.4.
With PMSVRRTVFCPSTSM the amyloid nucleation score was “inactive”.
With CYCLLGVRLHVWIS the amyloid nucleation score was “inactive”.
With RLLVTLQ the amyloid nucleation score was “inactive”.
In the case of PTLCNRGLACDEHSHR, the amyloid nucleation score is reported as “inactive”.
In the case of CDIISMALEPQVCTEYDLQR, the amyloid nucleation score is reported as 1.38 ± 0.1.
With SRKGDMPLDIDSWTCTVAFF the amyloid nucleation score was 1.13 ± 0.12.
For LLVLLVFTALY, the amyloid nucleation score was “inactive”.
In the case of WLHFCHSAPSEYFVIMRMCK, the amyloid nucleation score is reported as “inactive”.
In the case of LFYYSRTVESYLSNVCLVIR, the amyloid nucleation score is reported as “inactive”.
For RVCCVGYLSNLLTMKGTGID, the amyloid nucleation score was 1.81 ± 0.059.
For TAPFVYLLWRGKCSKAHSRY, the amyloid nucleation score was “inactive”.
With LYLYI the amyloid nucleation score was “inactive”.
With IWVENQFDRRFLGVSMF the amyloid nucleation score was “inactive”.
With CFFINRRTLKGLT the amyloid nucleation score was “inactive”.
For MLWCLSVSIDFYGGDNRMLT, the amyloid nucleation score was “inactive”.
In the case of NLGTATLHLSYYMDPLTT, the amyloid nucleation score is reported as “inactive”.
Work on FHMIECGVYAKHLGHCTRYI yielded an amyloid nucleation score of -0.079 ± 0.33.
In the case of EFVRVLRDISLVSGVMGYHY, the amyloid nucleation score is reported as “inactive”.
For RTWSAKGYDNIRDVGLNSES, the amyloid nucleation score was “inactive”.
With GGWIY the amyloid nucleation score was “inactive”.
With YSRFDWVNLVIVGHYRTLFS the amyloid nucleation score was “inactive”.
With YLRDNKAWLASSSKL the amyloid nucleation score was “inactive”.
With RNCQRESGTLYNYHVARS the amyloid nucleation score was “inactive”.
For RMMCARIFRVSWLSSCLEGG, the amyloid nucleation score was “inactive”.
In the case of RRVMIALRYRRYGEFTEAYP, the amyloid nucleation score is reported as “inactive”.
CFCFLIM gave an amyloid nucleation score of 1.05 ± 0.21.
Substance ATRASPMSGTYSCTFKIIFL has an amyloid nucleation score of 2.94 ± 0.082.
VICGCWIFFFYFLK gave an amyloid nucleation score of -0.354 ± 0.73.
With RKCCGVLSLSASLHDRDDGC the amyloid nucleation score was “inactive”.
With FMLCLMATLRKGLDANLWVT the amyloid nucleation score was “inactive”.
With DSCVPIYVDTYGGDLDVNGG the amyloid nucleation score was “inactive”.
For MNTVGLIDLHSGAPLSINRT, the amyloid nucleation score was “inactive”.
With SRSCVACGLY the amyloid nucleation score was “inactive”.
For SSNDPQHHVDAGEADQRSRV, the amyloid nucleation score was “inactive”.
For TLISYFEG, the amyloid nucleation score was “inactive”.
For FFSDRLTSTGSMES, the amyloid nucleation score was “inactive”.
In the case of SYNCA, the amyloid nucleation score is reported as “inactive”.
FGMKTYRLQIGYNITVCHSI showed an amyloid nucleation score of -0.603 ± 0.58.
With CYVNYWESDMLRTAVPNCTF the amyloid nucleation score was “inactive”.
With NTMMA the amyloid nucleation score was “inactive”.
In the case of FSFCIGRMCDLQALTASCLN, the amyloid nucleation score is reported as “inactive”.
Work on CMFRLMIPSIKTNAISIALC yielded an amyloid nucleation score of 0.068 ± 0.9.
For CSTYSRLRYIAYCWVVRP, the amyloid nucleation score was “inactive”.
For SKLRYRCSNSHQVIGTPCLD, the amyloid nucleation score was “inactive”.
RFTSVILNTSDLSKLRMGTE showed an amyloid nucleation score of 0.437 ± 0.31.
For FPRVTVPLVFSSIQESTSSE, the amyloid nucleation score was “inactive”.
For WDLITL, the amyloid nucleation score was “inactive”.
For IWFSLLVPDLPRIIGSLYIS, the amyloid nucleation score was “inactive”.
For RRYYLRV, the amyloid nucleation score was “inactive”.
In the case of FIVVDMDSYRAVDGARVFVE, the amyloid nucleation score is reported as “inactive”.
For ADSMTTGLVHGWCYFCMWFN, the amyloid nucleation score was 2.16 ± 0.065.
For FRLYFYYYSNLFRHFCYNKS, the amyloid nucleation score was “inactive”.
For CELYHMNRDF, the amyloid nucleation score was “inactive”.
YELFS showed an amyloid nucleation score of 0.922 ± 0.11.
In the case of VYNLIRLFLYPTVISSITPL, the amyloid nucleation score is reported as “inactive”.
For FNFLVWAQ, the amyloid nucleation score was “inactive”.
For FLGAVRLYSPAHTY, the amyloid nucleation score was “inactive”.
With SCIRNSLRLNSFSVFFLAFH the amyloid nucleation score was “inactive”.
Substance TIHIHFVGHDVCNRVVGVHH has an amyloid nucleation score of 1.24 ± 0.18.
In the case of IAFGVLVDDSDCCIDTYEEE, the amyloid nucleation score is reported as “inactive”.
In the case of QSPRRRMQSDIWS, the amyloid nucleation score is reported as “inactive”.
For CCRVRTS, the amyloid nucleation score was “inactive”.
In the case of IGPVVGGYRYMCPASDHK, the amyloid nucleation score is reported as “inactive”.
In the case of NCRYIVAPMKQLYMGIEMVL, the amyloid nucleation score is reported as “inactive”.
Work on VCCCHLCL yielded an amyloid nucleation score of 0.17 ± 0.56.
In the case of SELHRNRPTKLGFCRYESQV, the amyloid nucleation score is reported as “inactive”.
In the case of YYNSGSLNTYPVNLNLDNFH, the amyloid nucleation score is reported as “inactive”.
In the case of KVVRVIVSEGNRVIKFTTMP, the amyloid nucleation score is reported as “inactive”.
For IVQVV, the amyloid nucleation score was “inactive”.
With MINCISNMVISIGSKRTYPS the amyloid nucleation score was 2.5 ± 0.068.
With LSVRSTLARLPSGVIMMRSM the amyloid nucleation score was “inactive”.
For LCKCLLIEFCYVVK, the amyloid nucleation score was 0.772 ± 0.12.
In the case of FVQGYSFWYWVETYMFIRFV, the amyloid nucleation score is reported as “inactive”.
